Assay results from US20180333502A1 (published 2018).
One block for each binder: values may come before it.

Molecular target: T1, human GITR on cells (activated human T cells; 3A9-hGITR cells) (human, UniProt Q9Y5U5 26-241)
T1 chain: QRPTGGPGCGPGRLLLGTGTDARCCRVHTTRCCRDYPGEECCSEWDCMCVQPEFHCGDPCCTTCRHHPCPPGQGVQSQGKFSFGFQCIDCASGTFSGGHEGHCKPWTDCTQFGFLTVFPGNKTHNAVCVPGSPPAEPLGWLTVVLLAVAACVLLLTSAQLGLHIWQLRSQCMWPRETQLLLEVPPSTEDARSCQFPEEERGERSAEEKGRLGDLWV
Experiment: FACS binding to activated human CD4 T cells

EC50: 0.277 nM
B1: anti-GITR-IgG2 (antibody)
heavy: QVQLVESGGGVVQPGRSLRLSCAASGFTFSSYGMHWVRQAPGKGLEWVAVIWYEGSNKYYADSVKGRFTISRDNSKNTLYLQMNSLRAEDTAVYYCARGGSMVRGDYYYGMDVWGQGTTVTVSSASTKGPSVFPLAPCSRSTSESTAALGCLVKDYFPEPVTVSWNSGALTSGVHTFPAVLQSSGLYSLSSVVTVPSSNFGTQTYTCNVDHKPSNTKVDKTVERKCCVECPPCPAPPVAGPSVFLFPPKPKDTLMISRTPEVTCVVVDVSHEDPEVQFNWYVDGVEVHNAKTKPREEQFNSTFRVVSVLTVVHQDWLNGKEYKCKVSNKGLPAPIEKTISKTKGQPREPQVYTLPPSREEMTKNQVSLTCLVKGFYPSDIAVEWESNGQPENNYKTTPPMLDSDGSFFLYSKLTVDKSRWQQGNVFSCSVMHEALHNHYTQKSLSLSPGK
light: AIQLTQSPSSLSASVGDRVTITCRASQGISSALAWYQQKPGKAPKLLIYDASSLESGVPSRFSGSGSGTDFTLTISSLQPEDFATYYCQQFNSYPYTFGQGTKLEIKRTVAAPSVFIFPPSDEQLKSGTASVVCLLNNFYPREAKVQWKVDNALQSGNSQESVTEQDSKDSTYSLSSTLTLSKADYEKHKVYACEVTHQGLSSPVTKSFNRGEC

EC50: 0.163 nM
B2: anti-GITR-IgG2-IgG1.1 (antibody)
heavy: QVQLVESGGGVVQPGRSLRLSCAASGFTFSSYGMHWVRQAPGKGLEWVAVIWYEGSNKYYADSVKGRFTISRDNSKNTLYLQMNSLRAEDTAVYYCARGGSMVRGDYYYGMDVWGQGTTVTVSSASTKGPSVFPLAPCSRSTSESTAALGCLVKDYFPEPVTVSWNSGALTSGVHTFPAVLQSSGLYSLSSVVTVPSSNFGTQTYTCNVDHKPSNTKVDKTVERKCCVECPPCPAPPVAGPSVFLFPPKPKDTLMISRTPEVTCVVVDVSHEDPEVKFNWYVDGVEVHNAKTKPREEQYNSTYRVVSVLTVLHQDWLNGKEYKCKVSNKALPSSIEKTISKAKGQPREPQVYTLPPSREEMTKNQVSLTCLVKGFYPSDIAVEWESNGQPENNYKTTPPVLDSDGSFFLYSKLTVDKSRWQQGNVFSCSVMHEALHNHYTQKSLSLSPG
light: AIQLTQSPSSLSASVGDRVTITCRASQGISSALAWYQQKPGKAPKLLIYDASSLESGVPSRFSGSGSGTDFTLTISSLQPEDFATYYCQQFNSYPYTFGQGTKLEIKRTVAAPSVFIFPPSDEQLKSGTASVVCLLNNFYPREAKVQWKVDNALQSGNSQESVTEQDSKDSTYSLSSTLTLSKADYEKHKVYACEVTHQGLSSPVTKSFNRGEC
